{
  "source": "patent US20210308188A1",
  "about": "“CELL CLUSTER INCLUDING OLFACTORY NEURON OR PRECURSOR CELL THEREOF, AND METHOD FOR PRODUCING SAME” (SUMITOMO CHEMICAL COMPANY, LIMITED, priority 2018, published 2021)",
  "key": {"[1]": {"test_system": "human iPS cells", "assay": "Study for time to add BMP signaling pathway-activating substance in cell cluster production (Experiment 11)", "format": "cell-based", "details": "observed day 13", "procedure": "In Experiment 11, study of cell cluster production efficiency was performed for time to add the BMP signaling pathway-activating substance, that is, the start time of step (2), by changing the time to add the BMP signaling pathway-activating substance from day 1 to day 6 after the start of suspension culturing, using human iPS cells. The experiments were performed in accordance with the procedures shown in the upper section of FIG. 25, and the same experimental manipulations as in Experiment 3 were performed except for those specifically indicated.\nMaintenance-cultured human iPS cells were subjected to step (a), and then the human iPS cells dispersed into single cells were suspended into 100 μl of a serum-free medium in a non-cell-adhesive 96-well three-dimensional culture vessel (PrimeSurface 96 slit-well plate, MS-9096S, manufactured by Sumitomo Bakelite Co., Ltd.) to be 1×10^4 cells per well, and the cells were suspension-cultured under conditions of 37° C., 5% CO2. At the start of suspension culturing (day 0 after the start of suspension culturing, start of step (1)), Y27632 (final concentration 20 μM), IWP-2 (final concentration 2 μM) and SB-431542 (final concentration 1 μM) were added to the serum-free medium.\nOn any of days 1, 2, 3, 4, and 6 after the start of suspension culturing, a serum-free medium being free of Y27632 and containing IWP-2, SB-431542 and BMP4 was added at 100 μl per well (start of step (2)). BMP4 was added to the medium at 3 nM to be a final concentration in the well of 1.5 nM.\nIn addition, on day after the addition of a serum-free medium containing BMP4, the medium was half exchanged with a serum-free medium being free of Y27632 and BMP4 and containing SB-431542, K02288, FGF2, Heparin Sodium, and EGF (start of step (3c)). K02288, FGF2, Heparin Sodium, and EGF were added to the medium at 20 μM, 40 ng/ml, 20 μg/ml, and 40 ng/ml, respectively, to be final concentrations in the well were 10 μM, 20 ng/ml, 10 μg/ml, and 20 ng/ml. […]"}, "[2]": {"test_system": "human ES cells", "assay": "Study for addition-concentration of BMP signaling pathway-activating substance in cell cluster production (Experiment 7)", "format": "cell-based", "procedure": "In Experiment 7, a study of cell cluster production efficiency was performed for concentration of the BMP signaling pathway-activating substance in step (2), using human ES cells. The same experimental manipulations as in Experiment 2 (see the upper section of FIG. 8) were performed, and the concentration of BMP4 in the medium in step (2) was set to 7 conditions of 0.025 nM, 0.1 nM, 0.25 nM, 0.5 nM, 1.5 nM, 5 nM, and addition-free control.\nOn day 28 after the start of suspension culturing, bright-field observation was performed with an inverted microscope.\nIn addition, evaluation was performed for the cell clusters formed by adding each concentration of BMP4 according to the following four stages: cell cluster in a form close to spherical, whose 80% or more of the entire circumference was covered with non-neural epithelial tissue part (Grade 1, example=FIG. 20A); cell cluster whose 40% to 80% of the entire circumference was covered with non-neural epithelial tissue part or cell cluster in a distorted form (Grade 2, example=FIG. 20B); cell cluster whose ratio of non-neural epithelial tissue parts in the surface of the cell cluster was 40% or less (Grade 3, example=FIG. 20C); and cell cluster in which no non-neural epithelial tissue part was formed (Grade 4, example=FIG. 20D). The evaluation was performed by bright-field observation with an inverted microscope. As a result, non-neural epithelial tissues were not observed under the culture condition without adding of BMP4, as shown in FIG. 20E. Under the culture conditions in which 0.5 nM or more BMP4 was added in step (2), the Grade 1 cell clusters in a form close to a sphere, whose 80% or more of the entire circumference was covered with the non-neural epithelial tissue parts, were formed with high efficiency."}},
  "data": [
    {"molecule": "BMP4: BMP signaling pathway-activating substance, manufactured by R&D Systems (protein, UniProt P12644 293-408, looked up) Bone morphogenetic protein 4: SPKHHSQRARKKNKNCRRHSLYVDFSDVGWNDWIVAPPGYQAFYCHGDCPFPLADHLNSTNHAIVQTLVNSVNSSIPKACCVPTELSAISMLYLDEYDKVVLKNYQEMVVEGCGCR", "values": [
      {"measurement": "formation of non-neural epithelial tissue on the surface of the cell aggregate", "setting": "[1]; BMP4 1.5 nM added on any of days 1, 2, and 3 after start of suspension culturing", "value": "a non-neural epithelial tissue was formed on the surface of the cell aggregate"},
      {"measurement": "formation of cell aggregates having non-neural epithelial tissues on the surface with larger diameter", "setting": "[1]; BMP4 1.5 nM added on day 2 after start of suspension culturing", "value": "most efficiently and stably formed"},
      {"measurement": "formation of non-neural epithelial tissue on the surface of the cell aggregates", "setting": "[1]; BMP4 1.5 nM added on day 4 or 6 after start of suspension culturing", "value": "no formation of non-neural epithelial tissue was observed"},
      {"measurement": "quality evaluation grade of cell clusters (circumference covered with non-neural epithelial tissue part)", "setting": "[2]; 0.5 nM or more BMP4 added in step (2), day 28, formed with high efficiency", "value": "Grade 1 (cell cluster in a form close to spherical, whose 80% or more of the entire circumference was covered with non-neural epithelial tissue part)"},
      {"measurement": "diameter of spherical cell clusters formed", "setting": "[2]; all BMP4 concentrations (0.025 to 5 nM) in step (2), day 28 after start of suspension culturing, bright-field observation", "value": "around 600 μm"},
      {"measurement": "concentration of BMP4 added in step (2) at which Grade 1 cell clusters were formed with high efficiency", "setting": "[2]; day 28, bright-field observation", "value": "≥ 0.5", "unit": "nM"}
    ]}
  ]
}
